Results from patent US20230302148A1, “PHARMACEUTICAL COMPOSITION COMPRISING LONG-ACTING CONJUGATE OF TRIPLE GLUCAGON/GLP-1/GIP RECEPTOR AGONIST” (HANMI PHARM. CO., LTD., priority 2020, published 2023).
Bridges are numbered along the chain shown (N, C = ends). Where no end group is shown, it is not given here. [ ]: non-standard residue; d: D form. The star is where a group is joined. Acetyl(2-(4-imidazolyl)) = O=C(Cc1c[nH]cn1)*; Aib = CC(C)(N)C(=O)O

T1: human GIP receptor (human, UniProt P48546 22-466)
T1 sequence (looked up): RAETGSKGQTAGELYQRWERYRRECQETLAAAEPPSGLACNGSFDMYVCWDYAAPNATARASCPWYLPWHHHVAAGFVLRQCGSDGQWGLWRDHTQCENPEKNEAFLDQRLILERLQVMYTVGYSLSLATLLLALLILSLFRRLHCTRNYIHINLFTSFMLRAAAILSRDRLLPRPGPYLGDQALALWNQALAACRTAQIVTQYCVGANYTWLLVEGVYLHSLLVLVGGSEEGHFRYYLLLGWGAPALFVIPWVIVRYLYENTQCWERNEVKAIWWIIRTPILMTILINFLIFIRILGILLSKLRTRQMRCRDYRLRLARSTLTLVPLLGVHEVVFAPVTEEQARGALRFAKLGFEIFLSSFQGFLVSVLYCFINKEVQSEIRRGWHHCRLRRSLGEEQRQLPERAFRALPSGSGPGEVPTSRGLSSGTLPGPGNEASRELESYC


How the values were obtained:
Assay in all cases: cell-based or functional assay
human GLP-1 receptor = human GLP-1 receptor (human, UniProt P43220 24-463)
human GCG receptor = human GCG receptor (human, UniProt P47871 26-477)
human GIP receptor = biological target: T1, human GIP receptor

Sequence of human GCG receptor (P47871 26-477): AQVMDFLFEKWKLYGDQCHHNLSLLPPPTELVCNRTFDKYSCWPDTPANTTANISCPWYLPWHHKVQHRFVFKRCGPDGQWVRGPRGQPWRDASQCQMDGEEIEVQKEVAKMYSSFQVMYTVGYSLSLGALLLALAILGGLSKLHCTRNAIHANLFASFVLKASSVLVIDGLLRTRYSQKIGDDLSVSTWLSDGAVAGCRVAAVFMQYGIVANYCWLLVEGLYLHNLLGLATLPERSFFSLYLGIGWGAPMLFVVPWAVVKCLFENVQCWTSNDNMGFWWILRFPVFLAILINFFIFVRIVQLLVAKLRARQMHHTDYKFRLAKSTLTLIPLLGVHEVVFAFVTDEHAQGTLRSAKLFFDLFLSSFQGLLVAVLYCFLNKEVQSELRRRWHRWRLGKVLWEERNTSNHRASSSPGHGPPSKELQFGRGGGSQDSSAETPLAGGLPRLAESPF

Binder	In vitro activity relative to native peptide (%) vs. GLP-1 (human GLP-1 receptor) [%]	In vitro activity relative to native peptide (%) vs. Glucagon (human GCG receptor) [%]	In vitro activity relative to native peptide (%) vs. GIP (human GIP receptor) [%]
H[Aib]QGTFTSDYSIAMDEIHQKDFVNWLLNTC (bridge 16-20) [triple agonist of SEQ ID NO: 57]	11.7	< 0.1	0.3
[Acetyl(2-(4-imidazolyl))][Aib]QGTFTSDYSIAMDEIACKDFVNWLLNTK (bridge 16-20; not fully specified) [triple agonist of SEQ ID NO: 61]	59.8	< 0.1	2.8
Y[Aib]QGTFTSDYSKYLDECAAKEFVQWLLDHHPSSGQPPPS (bridge 16-20) [triple agonist of SEQ ID NO: 64]	64.6	60.1	92.9
[Acetyl(2-(4-imidazolyl))][Aib]QGTFTSDYSKYLDECRAKEFVQWLLDHHPSSGQPPPS (bridge 16-20; not fully specified) [triple agonist of SEQ ID NO: 73]	22.6	5.4	3
Y[Aib]QGTFTSDYSKYLDECRAKDFVQWLLDHHPSSGQPPPS (bridge 16-20) [triple agonist of SEQ ID NO: 66]	15.8	172	17.2
[Acetyl(2-(4-imidazolyl))][Aib]QGTFTSDCSKYLDERAAQDFVQWLLDGGPSSGAPPPS [triple agonist of SEQ ID NO: 63]	15.3	< 0.1	< 0.1
[Acetyl(2-(4-imidazolyl))][Aib]QGTFTSDYSKCLDEKRAKEFVQWLLDHHPSSGQPPPS (bridge 16-20; not fully specified) [triple agonist of SEQ ID NO: 74]	12.9	0.9	1
[Acetyl(2-(4-imidazolyl))][Aib]QGTFTSDYSICMDEKHQKDFVNWLLNTK (bridge 16-20; not fully specified) [triple agonist of SEQ ID NO: 59]	40.3	< 0.1	4
H[Aib]QGTFTSDYSKCLDEKRAKEFVQWLLDHHPSSGQPPPS (bridge 16-20) [triple agonist of SEQ ID NO: 65]	95.4	25.2	11.6
H[Aib]QGTFTSDVSKYLDGQAAKEFVAWLLKGC [triple agonist of SEQ ID NO: 7]	13.7	< 0.1	< 0.1
[Acetyl(2-(4-imidazolyl))][Aib]QGTFTSDYSIAMDEKHCKDFVNWLLNTK (bridge 16-20; not fully specified) [triple agonist of SEQ ID NO: 60]	106	< 0.1	8.2
H[Aib]QGTFTSDYSKYLDEKRQKEFVQWLLNTKC (bridge 16-20) [triple agonist of SEQ ID NO: 58]	39.1	2.6	0.2
Y[Aib]QGTFTSDYSKCLDERAAKEFVQWLLDHHPSSGQPPPS (bridge 16-20) [triple agonist of SEQ ID NO: 69]	24.3	9.6	62.8
[Acetyl(2-(4-imidazolyl))][Aib]QGTFTSDKSKYLDERAAQDFVQWLLDGGPSSGAPPPS [triple agonist of SEQ ID NO: 62]	5.2	< 0.1	< 0.1
Y[Aib]QGTFTSDYSKYLDECAAKDFVQWLLDHHPSSGQPPPS (bridge 16-20) [triple agonist of SEQ ID NO: 67]	28.5	46.2	39.8
H[Aib]QGTFTSDYSKYLDEKRQKEFVQWLLDTC (bridge 16-20) [triple agonist of SEQ ID NO: 52]	44.1	7.5	0.3
H[Aib]EGTFTSDYSIAMDEIHQKDFVDWLLAEC (bridge 16-20) [triple agonist of SEQ ID NO: 54]	30.6	1.4	0.1
H[Aib]QGTFTSDYSKYLDEKRQKEFVNWLLAQC (bridge 16-20) [triple agonist of SEQ ID NO: 56]	57.9	4.9	0.8
Y[Aib]QGTFTSDYSKCLDEKAAKEFVQWLLDHHPSSGQPPPS (bridge 16-20) [triple agonist of SEQ ID NO: 68]	27.9	8.8	107
Y[Aib]QGTFTSDCSKYLDERAAKDFVQWLLDHHPSSGQPPPS (bridge 16-20) [triple agonist of SEQ ID NO: 72]	11.5	1	1.6
Y[Aib]QGTFTSDYSKYLDERACKDFVQWLLDHHPSSGQPPPS (bridge 16-20) [triple agonist of SEQ ID NO: 71]	90.1	12.7	94.7
H[Aib]QGTFTSDVSSYLDGQAAKEFVAWLLKGC [triple agonist of SEQ ID NO: 6]	17	< 0.1	< 0.1
H[Aib]QGTFTSDVSKYLDGQAAQEFVAWLLKGC [triple agonist of SEQ ID NO: 8]	14.2	0.1	< 0.1
H[Aib]EGTFTSDYSIAMDEIHQKDFVNWLLAQC (bridge 16-20) [triple agonist of SEQ ID NO: 53]	161	8.4	1.3
Y[Aib]QGTFTSDYSKCLDEKRAKDFVQWLLDHHPSSGQPPPS (bridge 16-20) [triple agonist of SEQ ID NO: 70]	15.1	71.3	64.4
H[Aib]QGTFTSDYSIAMDEIHQKDFVNWLLAQC (bridge 16-20) [triple agonist of SEQ ID NO: 55]	27.1	0.7	2.4
